Drawing on patent publication US20220049021A1, this text covers EC50(nM), M1 IL-6 release assay, Emax(pg/ml), M1 IL-6 release assay and EC50 (nM), Inducing Proliferation of AML5 Cells for four molecules.

Substitutions are numbered along the chain they refer to. In names and notes the source's numbering stands.

The target of assay [1] is T1, mouse FLT3 on M1 cells (mouse) (UniProt Q00342).
T1 sequence (looked up): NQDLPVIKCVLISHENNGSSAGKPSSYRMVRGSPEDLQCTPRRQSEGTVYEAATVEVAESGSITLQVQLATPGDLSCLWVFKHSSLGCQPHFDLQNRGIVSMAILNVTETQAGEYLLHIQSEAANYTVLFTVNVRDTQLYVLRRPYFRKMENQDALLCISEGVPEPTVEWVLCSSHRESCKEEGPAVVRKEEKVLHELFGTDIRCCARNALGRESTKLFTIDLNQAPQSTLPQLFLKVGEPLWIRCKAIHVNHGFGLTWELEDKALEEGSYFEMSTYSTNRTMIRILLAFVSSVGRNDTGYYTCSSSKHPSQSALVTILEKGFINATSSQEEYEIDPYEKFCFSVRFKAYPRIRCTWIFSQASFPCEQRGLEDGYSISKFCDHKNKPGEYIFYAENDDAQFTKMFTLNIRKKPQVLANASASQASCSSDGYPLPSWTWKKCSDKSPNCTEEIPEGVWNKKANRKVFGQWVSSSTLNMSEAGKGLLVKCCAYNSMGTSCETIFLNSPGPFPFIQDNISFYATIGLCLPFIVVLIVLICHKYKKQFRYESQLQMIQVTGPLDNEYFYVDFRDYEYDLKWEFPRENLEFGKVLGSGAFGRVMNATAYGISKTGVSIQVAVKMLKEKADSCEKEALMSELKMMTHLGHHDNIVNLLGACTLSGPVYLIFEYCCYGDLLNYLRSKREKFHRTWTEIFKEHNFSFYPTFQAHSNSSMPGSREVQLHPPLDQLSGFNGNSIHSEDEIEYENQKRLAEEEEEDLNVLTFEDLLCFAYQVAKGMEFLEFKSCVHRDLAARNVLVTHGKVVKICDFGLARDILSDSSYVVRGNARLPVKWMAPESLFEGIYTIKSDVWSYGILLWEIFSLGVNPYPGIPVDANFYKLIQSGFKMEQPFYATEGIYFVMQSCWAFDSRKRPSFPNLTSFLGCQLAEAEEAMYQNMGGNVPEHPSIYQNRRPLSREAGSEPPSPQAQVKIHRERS
The experiment in a line: cell-based or functional assay.

The target of assay [2] is T2, human FLT3 on AML5 cells (human) (UniProt P36888).
T2 sequence (looked up): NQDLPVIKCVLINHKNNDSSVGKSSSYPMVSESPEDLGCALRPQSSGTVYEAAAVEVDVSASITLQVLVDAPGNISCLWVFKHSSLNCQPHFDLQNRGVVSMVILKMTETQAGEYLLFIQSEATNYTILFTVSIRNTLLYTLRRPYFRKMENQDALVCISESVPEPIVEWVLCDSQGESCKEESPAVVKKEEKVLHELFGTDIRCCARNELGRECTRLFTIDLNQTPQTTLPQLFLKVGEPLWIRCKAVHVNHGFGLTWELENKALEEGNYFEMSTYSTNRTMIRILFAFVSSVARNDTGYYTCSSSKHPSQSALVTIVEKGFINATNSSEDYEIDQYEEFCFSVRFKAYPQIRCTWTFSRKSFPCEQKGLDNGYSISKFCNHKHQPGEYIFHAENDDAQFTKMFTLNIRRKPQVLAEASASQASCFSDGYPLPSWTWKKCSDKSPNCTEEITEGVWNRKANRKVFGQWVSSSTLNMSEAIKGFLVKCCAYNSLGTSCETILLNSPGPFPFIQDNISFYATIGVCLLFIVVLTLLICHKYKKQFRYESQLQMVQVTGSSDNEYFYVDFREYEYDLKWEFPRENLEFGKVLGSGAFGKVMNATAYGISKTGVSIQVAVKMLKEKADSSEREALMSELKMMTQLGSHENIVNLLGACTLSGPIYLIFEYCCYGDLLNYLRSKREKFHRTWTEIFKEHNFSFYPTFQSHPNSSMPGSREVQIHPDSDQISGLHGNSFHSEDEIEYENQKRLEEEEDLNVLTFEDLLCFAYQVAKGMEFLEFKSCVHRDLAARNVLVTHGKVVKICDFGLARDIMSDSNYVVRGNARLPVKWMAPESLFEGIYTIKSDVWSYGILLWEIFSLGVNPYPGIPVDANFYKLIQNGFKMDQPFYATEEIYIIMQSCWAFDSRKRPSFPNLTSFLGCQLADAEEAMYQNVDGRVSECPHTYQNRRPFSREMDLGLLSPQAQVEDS
The experiment in a line: cell-based or functional assay.

B1: recombinant human FLT3-ligand human IgG1 fusion protein (Fc fusion, UniProt P49771 27-185, looked up, not shown: a dimerising Fc or GST)
chain: TQDCSFQHSPISSDFAVKIRELSDYLLQDYPVTVASNLQDEELCGGLWRLVLAQRWMERLKTVAGSKMQGLLERVNTEIHFVTKCAFQPPPSCLRFVQTNISRLLQETSEQLVALKPWITRQNFSRCLELQCQPDSSTLPPPWSPRPLEATAPTAPQPP
As to B1, in assay [1], the EC50(nM), M1 IL-6 release assay is 0.117 nM and the Emax(pg/ml), M1 IL-6 release assay worked out at 517 pg/mL.

B2: recombinant human FLT3-ligand (ligand, UniProt P49771 27-185, looked up)
chain: B1 chain
As to B2, the EC50 (nM), Inducing Proliferation of AML5 Cells in assay [2] amounted to 0.039 nM. In assay [1], the EC50(nM), M1 IL-6 release assay worked out at 0.024 nM and the Emax(pg/ml), M1 IL-6 release assay was 392 pg/mL.

B3: mouse FLT3-ligand mouse IgG2a (LALA-PG) fusion protein (SEQ ID NO:19) (Fc fusion)
chain: TPDCYFSHSPISSNFKVKFRELTDHLLKDYPVTVAVNLQDEKHCKALWSLFLAQRWIEQLKTVAGSKMQTLLEDVNTEIHFVTSCTFQPLPECLRFVQTNISHLLKDTCTQLLALKPCIGKACQNFSRCLEVQCQPDSSTLLPPRSPIALEATELPEPRGPTIKPCPPCKCPAPNAAGGPSVFIFPPKIKDVLMISLSPIVTCVVVDVSEDDPDVQISWFVNNVEVHTAQTQTHREDYNSTLRVVSALPIQHQDWMSGKEFKCKVNNKDLGAPIERTISKPKGSVRAPQVYVLPPPEEEMTKKQVTLTCMVTDFMPEDIYVEWTNNGKTELNYKNTEPVLDSDGSYFMYSKLRVEKKNWVERNSYSCSVVHEGLHNHHTTKSFSRTPGK
For B3, the EC50 (nM), Inducing Proliferation of AML5 Cells in assay [2] was 0.171 nM.

B4: mouse FLT3-ligand mouse IgG2a (C136S LALA-PG) fusion protein (SEQ ID NO:20) (Fc fusion)
chain: B3 chain with C109S
Consider B4, for which the EC50 (nM), Inducing Proliferation of AML5 Cells in assay [2] came out at 0.115 nM.
